Test results as given in patent US20190022243A1.

Molecular target: human AXL (full length) (human (Homo sapiens)) (UniProt P30530)
Assay: flow cytometry, A431 cells pre-incubated with 10 µg/mL Gas6 (competitor: Gas6)

fold higher EC50 after Gas6 pre-incubation than without Gas6: 21 fold
maximal binding in the presence of Gas6 (% of binding without Gas6): 19%
B1: IgG1-YW327.6S2 (antibody, from another filing, V domains shown)
VH: EVQLVESGGGLVQPGGSLRLSCAASGFSLSGSWIHWVRQAPGKGLEWVGWINPYRGYAYYADSVKGRFTISADTSKNTAYLQMNSLRAEDTAVYYCAREYSGWGGSSVGYAMDYWGQGTLVTVSS
VL: DIQMTQSPSSLSASVGDRVTITCRASQDVSTAVAWYQQKPGKAPKLLIYSASFLYSGVPSRFSGSGSGTDFTLTISSLQPEDFATYYCQQSYTTPPTFGQGTKVEIK
